{"source": "paper PMC10998826", "about": "(EJNMMI Research, 2024)", "key": {"[1]": {"assay": "In-vivo stability in blood (radio-HPLC of plasma, % intact peptide)", "set-up": "species or system humans", "settings": "for Stability (% of initial signal): in-vivo, plasma radio-HPLC", "experimental": "(§1) Patients were allowed a light breakfast at the day of each infusion. […] Entresto® was given at an oral dose of 100 mg, containing 48.6 mg sacubitril and 51.4 mg valsartan 2 h before the start of one of the two infusions. Vital signs were recorded, and a 12-lead electrocardiogram was obtained before and after each injection. Adverse events were recorded and graded according to Common Terminology Criteria for Adverse Events (CTCAE) version 4.03.\nBlood samples were collected in polypropylene tubes containing ethylenediaminetetraacetic acid at 5, 15, 30 and 60 min after administration of ^177Lu-PP-F11N. The tubes were placed on ice. Plasma was separated by centrifugation (4000 g for 10 min) and protein precipitation followed using cold methanol (v/v 1/2). The mixture was stirred to favor precipitation of proteins and then centrifuged at 4000 g for 10 min. The supernatant was collected and filtered through a […] filter (Millex®-GV, Merck Millipore, Bedford, MA, USA). The clear solution was diluted with H2O (1:1) and then analyzed by radio-high performance liquid chromatography (HPLC) to determine the percentage of intact peptide over time. HPLCs were performed on the Agilent 1260 infinity instrument (Agilent, Santa Clara, United States) connected to a GABI radioactivity-HPLC-flow-monitor γ-spectrometer (Elysia-raytest, Straubenhardt, Germany)."}, "[2]": {"assay": "Acute toxicity, adverse events graded by CTCAE version 4.03", "type": "in vivo, humans", "settings": "all patients, with and without Entresto premedication", "experimental": "as §1"}, "[3]": {"system": "medullary thyroid carcinoma tumors", "assay": "SPECT/CT based dosimetry of tumors", "type": "in vivo, humans", "settings": "for Mean tumor dose: SPECT/CT dosimetry", "experimental": "as §1\nPlanar whole-body scintigraphy and quantitative SPECT/CT acquisitions of neck/thorax/abdomen/pelvis were acquired with a hybrid SPECT/CT system (Siemens Intevo, Siemens Erlangen, Germany) at 1, 4, 24 and 72 h post injection (p.i.).\nCalibration of the SPECT/CT camera was performed with a National Institute of Standards and Technology traceable selenium-75 point source (uncertainty in activity 3%) every four weeks. Acquisitions (medium-energy low-penetration collimator) were performed in step and shoot mode using 20 s/view, 64 views/head using a non-circular orbit with a 180° detector configuration in a 128 × 128 matrix. The photo-peak window was set to 208 keV ± 10% (187.2–228.8 keV). Except for the first patient, the quantitative tomographic images (isotropic voxel size 5.08 mm^3) were reconstructed with xSPECT Quant™ (Siemens Healthcare, Siemens Erlangen, Germany) which uses the ordered subset conjugate gradient method (OSCGM) to calculate the quantitative activity distribution. The number of iterations (12, 24 or 60) with one subset and 3D-Gaussian post-filter with full width at half maximum (FWHM) of 16.0 mm and 20.8 mm were selected automatically by the reconstruction algorithm, based on the count statistic. Triple energy window scatter correction, CT-based attenuation correction, and resolution recovery were enabled for all image reconstructions. As the xSPECT Quant™ algorithm was not available at the site initially, images of the first patient were quantitatively reconstructed (isotropic voxel size of 3.9 mm^3) using the OSCGM algorithm with 24 iterations, one subset and a 3D-Gaussian post filter of 10.0 mm FWHM. For these reconstructions, both photo-peak energy windows at 113 keV ± 10% and 208 keV ± 10% were used. All other settings remained as stated above.\nAt first a VOI with volume V0 and activity A0 enclosing the tumor and its surrounding background was drawn. Subsequently, the threshold was increased until a new VOI with volume Vspect and activity Aspect separating the tumor activity from background was found. The activity in the tumor at the fourth time point can then be estimated by A4=Aspect-A0-Aspect/V0-VspectVspect-VCT, where the second term is the background correction, with the tumor volume VCT determined in the contrast enhanced CT. Spill in and out of activity from the tumor volume into the background was not considered.\nTime activity curves (TAC) of the tumors were determined using the mean activity of 3 ml threshold VOIs, drawn in the 1, 4, 24 and 72 h p.i. images. A linear model yt=α+λe·t was fitted to the log-transformed data points to estimate the effective half-life Te=ln2/λe . The activity at the first acquisition is then given by A1=A4·e^λe·Δt where Δt is the time difference between the first and fourth acquisition. The total number of disintegrations can then be estimated by N=A1t1/2+∫t1e^-λet^′dt^′ where t1 is the time of the first acquisition.\nThe average energy deposition E per disintegration in soft tissue voxels of 3.9 mm^3 and 5.08^3 mm^3 with density ρ=1g/cm^3 was calculated with FLUKA, resulting in the mean tumor dose given by D=N·E/ρ·VCT .\nIn case the data was not suitable for single exponential fit, N was calculated numerically using trapezoidal integration until the fourth time point and after with analytical integration of the exponential decay using the half-live of Lutetium-177.\nThe energy distribution in ICRP soft tissue of a Lu-177 point source was calculated with the MC-Simulation toolkit FLUKA version 4.1.0."}, "CCK2R positive tumors": {"system": "CCK2R positive tumors", "settings": "athymic mouse model; cited from earlier work", "excerpt": "About 90% of medullary thyroid carcinomas (MTCs) express the transmembrane G protein–coupled cholecystokinin 2 receptor (CCK2R) at a high density, making CCK2R an interesting target for peptide receptor radionuclide therapy (PRRT). Recently, a new generation of radiolabeled minigastrin derivatives, targeting CCK2R, with improved and promising properties was introduced. First clinical trials explore the potential of such compounds for imaging and PRRT of CCK2R expressing tumors, in particular for MTC [3–5]. However, the reported tumor radiation doses were lower than those usuall ..."}}}
{"smiles": "CSCC[C@H](NC(=O)[C@H](Cc1c[nH]c2ccccc12)NC(=O)CNC(=O)[C@H](Cc1ccc(O)cc1)NC(=O)[C@H](C)NC(=O)[C@@H](CCC(=O)O)NC(=O)[C@@H](CCC(=O)O)NC(=O)[C@@H](CCC(=O)O)NC(=O)[C@@H](CCC(=O)O)NC(=O)[C@@H](CCC(=O)O)NC(=O)[C@@H](CCC(=O)O)NC(=O)CN1CCN(CC(=O)O)CCN(CC(=O)O)CCN(CC(=O)O)CC1)C(=O)N[C@@H](CC(=O)O)C(=O)N[C@@H](Cc1ccccc1)C(N)=O", "note": "[[^177Lu]Lu-PP-F11N, [^177Lu]Lu-DOTA-(DGlu)6-Ala-Tyr-Gly-Trp-Met-Asp-Phe-NH2, metal not drawn]", "values": [{"measurement": "Median stability with Entresto premedication compared to without", "setting": "[1]; 5 min p.i.", "value": 1.1, "unit": "fold"}, {"measurement": "Median stability with Entresto premedication compared to without", "setting": "[1]; 15 min p.i.", "value": 1.1, "unit": "fold"}, {"measurement": "Median stability with Entresto premedication compared to without", "setting": "[1]; 30 min p.i.", "value": 1.2, "unit": "fold"}, {"measurement": "Median stability with Entresto premedication compared to without", "setting": "[1]; 60 min p.i.", "value": 1.6, "unit": "fold"}, {"measurement": "Stability (% of initial signal)", "setting": "[1]; 5 min p.i., with Entresto premedication (100 mg oral, 2 h before), median of patients", "value": 99.5, "unit": "%"}, {"measurement": "Stability (% of initial signal)", "setting": "[1]; 5 min p.i., without Entresto premedication, median of patients", "value": 94.1, "unit": "%"}, {"measurement": "Stability (% of initial signal)", "setting": "[1]; 15 min p.i., with Entresto premedication (100 mg oral, 2 h before), median of patients", "value": 92.1, "unit": "%"}, {"measurement": "Stability (% of initial signal)", "setting": "[1]; 15 min p.i., without Entresto premedication, median of patients", "value": 80.3, "unit": "%"}, {"measurement": "Stability (% of initial signal)", "setting": "[1]; 15 min p.i., without Entresto premedication, patient 1", "value": 69.9, "unit": "%"}, {"measurement": "Stability (% of initial signal)", "setting": "[1]; 15 min p.i., without Entresto premedication, patient 2", "value": 80.3, "unit": "%"}, {"measurement": "Stability (% of initial signal)", "setting": "[1]; 15 min p.i., without Entresto premedication, patient 3", "value": 91.4, "unit": "%"}, {"measurement": "Stability (% of initial signal)", "setting": "[1]; 15 min p.i., without Entresto premedication, patient 4", "value": 90.5, "unit": "%"}, {"measurement": "Stability (% of initial signal)", "setting": "[1]; 15 min p.i., without Entresto premedication, patient 5", "value": 88.8, "unit": "%"}, {"measurement": "Stability (% of initial signal)", "setting": "[1]; 15 min p.i., without Entresto premedication, patient 6", "value": 90.2, "unit": "%"}, {"measurement": "Stability (% of initial signal)", "setting": "[1]; 15 min p.i., without Entresto premedication, patient 7", "value": 71.4, "unit": "%"}, {"measurement": "Stability (% of initial signal)", "setting": "[1]; 15 min p.i., without Entresto premedication, patient 8", "value": 68.1, "unit": "%"}, {"measurement": "Stability (% of initial signal)", "setting": "[1]; 30 min p.i., with Entresto premedication (100 mg oral, 2 h before), median of patients", "value": 78.5, "unit": "%"}, {"measurement": "Stability (% of initial signal)", "setting": "[1]; 30 min p.i., with Entresto premedication (100 mg oral, 2 h before), patient 1", "value": 78.5, "unit": "%"}, {"measurement": "Stability (% of initial signal)", "setting": "[1]; 30 min p.i., with Entresto premedication (100 mg oral, 2 h before), patient 2", "value": 85.7, "unit": "%"}, {"measurement": "Stability (% of initial signal)", "setting": "[1]; 30 min p.i., with Entresto premedication (100 mg oral, 2 h before), patient 3", "value": 80.6, "unit": "%"}, {"measurement": "Stability (% of initial signal)", "setting": "[1]; 30 min p.i., with Entresto premedication (100 mg oral, 2 h before), patient 5", "value": 85.5, "unit": "%"}, {"measurement": "Stability (% of initial signal)", "setting": "[1]; 30 min p.i., with Entresto premedication (100 mg oral, 2 h before), patient 6", "value": 77.9, "unit": "%"}, {"measurement": "Stability (% of initial signal)", "setting": "[1]; 30 min p.i., with Entresto premedication (100 mg oral, 2 h before), patient 7", "value": 75.3, "unit": "%"}, {"measurement": "Stability (% of initial signal)", "setting": "[1]; 30 min p.i., with Entresto premedication (100 mg oral, 2 h before), patient 8", "value": 79.9, "unit": "%"}, {"measurement": "Stability (% of initial signal)", "setting": "[1]; 30 min p.i., without Entresto premedication, median of patients", "value": 64.5, "unit": "%"}, {"measurement": "Stability (% of initial signal)", "setting": "[1]; 30 min p.i., without Entresto premedication, patient 1", "value": 64.5, "unit": "%"}, {"measurement": "Stability (% of initial signal)", "setting": "[1]; 30 min p.i., without Entresto premedication, patient 2", "value": 72.3, "unit": "%"}, {"measurement": "Stability (% of initial signal)", "setting": "[1]; 30 min p.i., without Entresto premedication, patient 3", "value": 74.8, "unit": "%"}, {"measurement": "Stability (% of initial signal)", "setting": "[1]; 30 min p.i., without Entresto premedication, patient 4", "value": 67.6, "unit": "%"}, {"measurement": "Stability (% of initial signal)", "setting": "[1]; 30 min p.i., without Entresto premedication, patient 6", "value": 60.3, "unit": "%"}, {"measurement": "Stability (% of initial signal)", "setting": "[1]; 30 min p.i., without Entresto premedication, patient 7", "value": 50.1, "unit": "%"}, {"measurement": "Stability (% of initial signal)", "setting": "[1]; 60 min p.i., with Entresto premedication (100 mg oral, 2 h before), median of patients", "value": 64.15, "unit": "%"}, {"measurement": "Stability (% of initial signal)", "setting": "[1]; 60 min p.i., without Entresto premedication, median of patients", "value": 41.1, "unit": "%"}, {"measurement": "Serious adverse events", "setting": "[2]", "value": "No serious adverse event"}, {"measurement": "Mean tumor dose", "setting": "[3]; with Entresto premedication, median of n = 6 tumor lesions", "value": 0.74, "unit": "Gy/GBq"}, {"measurement": "Mean tumor dose", "setting": "[3]; with Entresto premedication, patient 4, 2nd tumor", "value": 0.07, "unit": "Gy/GBq"}, {"measurement": "Mean tumor dose", "setting": "[3]; without Entresto premedication, median of n = 6 tumor lesions", "value": 0.28, "unit": "Gy/GBq"}, {"measurement": "Mean tumor dose", "setting": "[3]; without Entresto premedication, patient 4, 2nd tumor", "value": 0.05, "unit": "Gy/GBq"}, {"measurement": "tissue to tissue ratio", "setting": "[3]; human, tumor and bone marrow, iv, total radioactivity, without Entresto premedication, median, read-out: Tumor-to-bone marrow dose ratio", "value": 9.2}, {"measurement": "Increase in tumor uptake on co-injection of phosphoramidon", "setting": "CCK2R positive tumors", "value": "not significant"}, {"measurement": "Increase in tumor uptake on co-injection of thiorphan", "setting": "CCK2R positive tumors", "value": "only to a minor extent"}]}
